Experimental findings from PMC11018607, “A widely conserved protein Rof inhibits transcription termination factor Rho and promotes Salmonella virulence program” (Nature Communications, 2024) are described below.

The target of this assay is T1, Transcription termination factor Rho (E. coli) (E. coli, UniProt P0AG30 1-419).
T1 construct: Transcription termination factor Rho, E. coli, expressed from pET24b-rho; no tag is mentioned; In the cryo-EM map density was absent for residues 280-284; also called EcRho; Rho hexamer; source: E. coli BL21(DE3) carrying pET24b-rho, purified (HiTrap Q, heparin, Superdex 200)
Description: SEC; gel filtration of the complex assembled by mixing purified Rho and Rof at a ratio of 1:1. The following applies: both partners purified. Background: In gel filtration, larger molecules generally elute earlier.

T1 sequence (P0AG30 whole entry, the tested form may be a part): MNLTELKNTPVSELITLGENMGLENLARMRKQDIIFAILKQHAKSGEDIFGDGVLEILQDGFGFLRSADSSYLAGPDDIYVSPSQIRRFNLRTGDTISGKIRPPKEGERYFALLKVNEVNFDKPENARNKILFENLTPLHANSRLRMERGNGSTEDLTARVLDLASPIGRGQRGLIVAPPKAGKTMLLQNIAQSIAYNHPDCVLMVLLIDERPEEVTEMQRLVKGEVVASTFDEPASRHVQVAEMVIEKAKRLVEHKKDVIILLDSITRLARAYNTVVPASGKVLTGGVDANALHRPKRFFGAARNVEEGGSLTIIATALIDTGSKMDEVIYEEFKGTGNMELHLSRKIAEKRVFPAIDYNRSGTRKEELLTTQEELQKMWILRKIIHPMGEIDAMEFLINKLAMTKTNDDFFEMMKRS

B1: Rof (Rho-off, YaeO), E. coli (natural protein)
chain: MNDTYQPINCDDYDNLELACQHHLMLTLELKDGEKLQAKASDLVSRKNVEYLVVEAAGETRELRLDKITSFSHPEIGTVVVSES
notes: Protein Rof (YaeO), E. coli, expressed from pET22b-rof; In the cryo-EM map density was absent for Rof residues 1-5; No removal of the tag is described; also called EcRof; source: E. coli BL21(DE3) transformed with pET22b-rof, purified (Ni-NTA, Superdex 200)
As for B1, the binding result is recorded as “binds”.
